Reference: patent publication US20130142788A1 (published 2013)
Where two headings read alike, the source gives them in different places.

How the values were obtained:
[1] = target: T1, recombinant mature dimeric myostatin (human and mouse (mature sequences 100% …, UniProt O08689 268-376)); experiment: cell-based or functional assay
T1 sequence: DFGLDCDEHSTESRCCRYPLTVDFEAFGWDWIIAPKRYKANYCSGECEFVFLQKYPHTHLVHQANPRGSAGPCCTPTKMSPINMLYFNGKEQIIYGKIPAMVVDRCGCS

Fc R3a Phe polymorphism = target: T2, Fc R3a Phe polymorphism (UniProt P08637 17-208, limits assumed); experiment: ProteOn XPR36 SPR, antibody immobilised, receptor 8-2048 nM, equilibrium model
T2 construct: also called FcγRIIIa Phe
Protocol: (§1) Binding analysis to Fc R5 and C1q was carried out using the ProteOn XPR36. The test antibodies (H8L5 and Fc-disabled H8L5) were immobilised on a GLC biosensor chip by primary amine coupling. The Fc Rs were used at 2048 nM, 512 nM, 128 nM, 32 nM and 8 nM, while C1q was used at 512 nM, 128 nM, 32 nM, 8 nM and 2 nM. A buffer injection (i.e. 0 nM) was used to double reference the binding sensorgrams. Due to the nature of the interaction (i.e. fast on/fast-off) regeneration was not required and the binding sensorgrams returned to baseline by use of a 20 min dissociation time and subsequent buffer injections. The data was fitted to the Equilibrium model inherent to the PrateOn's analysis software, using a global R-max for each receptor group and for C1q binding (i.e. Fc R 2aHis and Arg polymorphisms were analysed together and Fc R3aPhe and Val polymorphisms were analysed together, while C1q was analysed separately).

Fc R 2a His polymorphism = target: T3, Fc R 2a His polymorphism (UniProt P12318 34-217, limits assumed); experiment: as above
T3 construct: also called FcγRIIa His
T3 sequence (looked up): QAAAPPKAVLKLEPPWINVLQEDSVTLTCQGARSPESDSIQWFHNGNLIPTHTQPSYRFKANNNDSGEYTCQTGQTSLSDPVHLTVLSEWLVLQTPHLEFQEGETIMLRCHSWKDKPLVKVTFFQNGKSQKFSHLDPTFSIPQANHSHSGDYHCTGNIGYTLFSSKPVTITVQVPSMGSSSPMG
Protocol: as §1

Fc R 2a Arg polymorphism = target: T4, Fc R 2a Arg polymorphism (UniProt P12318 34-217, limits assumed); experiment: as above
T4 construct: also called FcγRIIa Arg
T4 sequence (looked up): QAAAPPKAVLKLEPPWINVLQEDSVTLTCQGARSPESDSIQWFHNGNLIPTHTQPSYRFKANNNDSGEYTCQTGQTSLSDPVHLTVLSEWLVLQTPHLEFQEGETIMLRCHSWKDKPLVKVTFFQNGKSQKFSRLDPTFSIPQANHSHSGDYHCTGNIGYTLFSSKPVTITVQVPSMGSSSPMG
Protocol: as §1

Fc R3a Val polymorphism = target: T5, Fc R3a Val polymorphism (UniProt P08637 17-208, limits assumed); experiment: as above
T5 construct: also called FcγRIIIa Val
Protocol: as §1

[2] = target: T1, recombinant mature dimeric myostatin; experiment: ELISA, myostatin coated at 10 ng/well
Protocol: 10B3 and 10B3 chimera (10B3C) bound myostatin (R&D Systems, 788-G8-010/CF) in a sandwich ELISA. Plates were coated with myostatin at 10 ng/well and blocked with Block solution (PBS, 0.1% TWEEN and 1% BSA). Following washing (PBS, 0.1% TWEEN), antibody was incubated at 37° C. for 2 hours over a dilution series and plates washed again prior to incubation at 37° C. for 1 hour with anti-mouse HRP or anti-human HRP (Dako, P0161 & Sigma, A-8400, respectively). Plates were again washed and OPD substrate (Sigma, P9187) added until colourometric reaction occurred and the reaction stopped by the addition of H₂SO₄.

[3] = target: T1, recombinant mature dimeric myostatin; experiment: ActRIIb receptor neutralisation ELISA: antibody pre-incubated with 2 nM biotinylated myostatin, binding to coated ActRIIb
Protocol: Recombinant soluble ActRIIb (R&D Systems 339-RBB) was coated in wells of an ELISA plate at 1 μg/ml in carbonate buffer overnight at 4° C. Plates were blocked (see Block solution above at 2.3) and washed following standard ELISA protocols. In parallel, 2 nM biotinylated myostatin (in-house, as described in 1.1, biotinylated material) was pre-incubated with an antibody dilution series consisting of 10B3, 10B3C, and a negative control (IgG1 isotype control) for 2 hours at 37° C. The biotinylated myostatin:antibody reactions were then added to the ActRIIb coated plate for 1 hour at 37° C. Standard wash procedures were followed prior to addition of 1:1000 diluted streptavidin-HRP conjugate (Dako P0397) and a further 37° C. incubation for 1 hour. Plates were again washed and assayed at absorbance 490 nm following OPD substrate (Sigma) and acid stop solution treatment. Inhibition curves and IC50 values for the inhibition of myostatin activity are shown in FIG. 5 and Table 8 respectively.

[4] = target: T1, recombinant mature dimeric myostatin; experiment: cell-based or functional assay; remark: listed apart in the source
[5] = target: T1, recombinant mature dimeric myostatin; experiment: cell-based or functional assay; remark: listed apart in the source
[6] = target: T1, recombinant mature dimeric myostatin; experiment: Kinexa solution phase affinity
Protocol: Kinexa (Sapidyne Instruments) solution phase affinity was used to determine the overall affinity for a range of anti-myostatin molecules. Myostatin beads were prepared either by adsorption (polymethylmethacrylate beads-PMMA) or amine coupling (NHS-activated sepharose beads). The range of anti-myostatin molecules studied necessitated the generation of beads coated with different concentrations of myostatin. For the solution phase portion of the assay, a fixed concentration of antibody was incubated with a broad range of myostatin concentrations and allowed to reach equilibrium by incubation at r.t. for at least 2 h before analysis proceeded. The myostatin beads were then used to determine the amount of free antibody present in the solution phase samples, by means of the free antibody binding to the myostatin bead matrix then detected using an appropriate secondary antibody (either anti-human or anti-mouse depending on the construct being tested) labelled with a fluorescent dye. The binding curves where fitted using the Kinexa Pro analysis software inherent to the machine. Multiple runs using varying starting concentrations of antibody were then compiled and analysed using the n-curve analysis software to give a more accurate determination of affinity.

[7] = target: T1, recombinant mature dimeric myostatin; experiment: BIAcore T100 SPR, antibody captured on protein A, myostatin analyte, all curves 1:1 model
Protocol: (§2) The affinity of 10B3 mouse parental and 10B3C for recombinant myostatin was assessed by BIAcore™ (surface plasmon resonance) analysis. Analysis was carried out by the use of a capture surface: anti-mouse IgG was coupled to a C1 chip by primary amine coupling for 10B3 mouse parental; and a protein A surface was created on a C1 chip by primary amine coupling for 10B3 chimera.
(§3) After capture, recombinant myostatin was passed over the surface at 64 nM, 16 nM, 4 nM, 1 nM, 0.25 nM and 0.0625 nM, with a buffer injection (i.e. 0 nM) used for double referencing. There was a regeneration step between each analyte injection, after which the new antibody capture event occurred before the next injection of myostatin. The data was analysed using both the 1:1 model and the Bivalent model inherent to the T100 machines analysis software (see Table 6). Both capture surfaces could be regenerated using 100 mM phosphoric acid, the work was carried out using HBS-EP as the running buffer and using 25° C. as the analysis temperature.

[8] = target: T1, recombinant mature dimeric myostatin; experiment: cell-based or functional assay; remark: listed apart in the source
[9] = target: T1, recombinant mature dimeric myostatin; experiment: BIAcore T100 SPR, antibody captured on protein A, myostatin analyte, all curves Bivalent model
Protocol: as §2, §3

T2 sequence (P08637 17-208 limits assumed): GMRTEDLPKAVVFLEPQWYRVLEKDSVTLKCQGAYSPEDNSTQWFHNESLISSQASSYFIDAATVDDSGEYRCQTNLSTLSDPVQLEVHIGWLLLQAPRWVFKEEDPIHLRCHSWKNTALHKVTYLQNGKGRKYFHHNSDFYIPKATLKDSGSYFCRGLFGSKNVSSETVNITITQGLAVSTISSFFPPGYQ
T5 sequence (P08637 17-208 F176V limits assumed): as the sequence (P08637 17-208 limits assumed) above, with F160V counted along it

B1: H2L2-C91S_F100G_Y Fc Disabled (antibody, human IgG1, kappa)
heavy: QVQLVQSGAEVKKPGASVKVSCKASGYSFTGYFMHWVRQAPGQGLEWMGNIYPYNGVSNYNQRFKARVTMTTDTSTSTAYMELRSLRSDDTAVYYCARRYYYGTGPADWYYDVWGQGTLVTVSSASTKGPSVFPLAPSSKSTSGGTAALGCLVKDYFPEPVTVSWNSGALTSGVHTFPAVLQSSGSLSSVVTVPSSSLGTQTYICNVNHKPSNTKVDKKVEPKSCDKTHTCPPCPAPELAGAPSVFLFPPKPKDTLMISRTPEVTCVVVDVSHEDPEVKFNWYVDGVEVHNAKTKPREEQYNSYVVSVLTVLHQDWLNGKEYKCKVSNKALPAPIEKTISKAKGQPREPQVYTLPPSRDELTKNQVSLTCLVKGFYPSDIAVEWESNGQPENNYKTTPPVLDSDGSFFKKLTVDKSRWQQGNVFSCSVMHEALHNHYTQKSLSLSPGK
light: DIQMTQSPSSLSASVGDRVTITCKASQDINSYLSWFQQKPGKAPKSLIYRANRLVDGVPSKFSGSGSGTDYTLTISSLQPEDFATYYCLQSDEFPLTFGQGTKLEIKRTVAAPSVFIFPPSDEQLKSGTASVVCLLNNFYPREAKVQWKVDNALQSGNSQESVTEQDSKDSTYSLSSTLTLSKADYEKHKVYACEVTHQGLSSPVTKSFNRGEC
- Mean IC50, A204 in vitro activity assay [1]: 1.24 nM

B2: Fc-disabled H8L5 (antibody, IgG1)
heavy: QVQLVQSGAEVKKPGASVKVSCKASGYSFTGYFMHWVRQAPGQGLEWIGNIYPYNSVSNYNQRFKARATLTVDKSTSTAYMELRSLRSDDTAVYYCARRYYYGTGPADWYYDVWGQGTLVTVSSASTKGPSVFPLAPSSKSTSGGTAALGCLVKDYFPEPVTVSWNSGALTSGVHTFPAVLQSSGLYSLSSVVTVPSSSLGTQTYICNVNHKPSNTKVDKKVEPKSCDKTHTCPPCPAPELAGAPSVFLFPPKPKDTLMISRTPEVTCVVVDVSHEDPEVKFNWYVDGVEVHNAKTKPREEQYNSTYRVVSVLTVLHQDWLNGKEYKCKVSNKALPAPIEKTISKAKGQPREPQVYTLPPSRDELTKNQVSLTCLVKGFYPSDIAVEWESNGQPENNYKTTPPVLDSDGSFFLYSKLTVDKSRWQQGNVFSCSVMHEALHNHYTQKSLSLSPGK
light: DIQMTQSPSSLSASVGDRVTITCKASQDINSYLSWFQQKPGKAPKTLIYRANRLVDGVPSKFSGSGSGTDYTLTISSLQPEDFATYYCLQSDEFPLTFGQGTKLEIKRTVAAPSVFIFPPSDEQLKSGTASVVCLLNNFYPREAKVQWKVDNALQSGNSQESVTEQDSKDSTYSLSSTLTLSKADYEKHKVYACEVTHQGLSSPVTKSFNRGEC
notes: hIgG1 Fc disabled (L235A, G237A, EU numbering); also called H8L5 disabled; H8disabledL5; copies: 2 + 2
- binding result (Fc R3a Phe polymorphism): binds
- binding result (Fc R 2a His polymorphism): binds
- binding result (Fc R 2a Arg polymorphism): binds
- binding result (Fc R3a Val polymorphism): binds

B3: 10B3 chimera (antibody, human IgG1, V domains shown)
VH: EVQLQQSGPELVKPGASVKISCKASGYSFTGYFMHWVKQSHGNILDWIGNIYPYNGVSNYNQRFKAKATLTVDKSSSTAYMELRSLTSEDSAVYYCARRYYYGTGPADWYFDVWGTGTLVTVSS
VL: DIKMTQSPSSMYASLRERVTITCKASQDINSYLSWFQQKPGKSPKTLIYRANRLVDGVPSRFSGSGSGQDYSLTISSLEYEDMGIYYCLQCDEFPLTFGAGTKLELKR
notes: 10B3 variable regions on human IgG1/k wild type constant regions; also called HCLC; HcLc
- EC50 [2]: 0.049 µg/mL
- IC50 [3]: 0.138 µg/mL
- Mean IC50, A204 in vitro activity assay [4]: 3.53 nM
- Mean IC50, A204 in vitro activity assay [5]: 3.57 nM
- Kd [6]: 0.548 nM
- Kd [7]: 0.088 nM
- IC50, myostatin responsive reporter gene assay (A204 cells, luciferase) [8]: 6.2 nM
- Kd [9]: 3.6 nM

B4: H2L2-C91S (antibody, IgG1, V domains shown)
VH: QVQLVQSGAEVKKPGASVKVSCKASGYSFTGYFMHWVRQAPGQGLEWMGNIYPYNGVSNYNQRFKARVTMTTDTSTSTAYMELRSLRSDDTAVYYCARRYYYGTGPADWYFDVWGQGTLVTVSS
VL: DIQMTQSPSSLSASVGDRVTITCKASQDINSYLSWFQQKPGKAPKSLIYRANRLVDGVPSKFSGSGSGTDYTLTISSLQPEDFATYYCLQSDEFPLTFGQGTKLEIKR
- Mean IC50, A204 in vitro activity assay [1]: 4.08 nM
- Mean IC50, A204 in vitro activity assay [4]: 5.14 nM
